Measurements reported in PMC11078757, “Ligand efficacy modulates conformational dynamics of the µ-opioid receptor” (Nature, 2024).

Molecular target: T1, Gi1 heterotrimer (human Gαi1, Gβ1, Gγ2) (human, UniProt P63096 1-354; P62873 1-340; P59768 1-71)
T1 construct: Gαi1, human; Gβ1, human; Gγ2, cloned together with human Gβ1 in pFastBac Dual; Treated with λ protein phosphatase; Purified with 10 µM GDP; made nucleotide-free in the assay with apyrase where said; Residues of the 3C site may be left on Gβ1 after cleavage; also called G protein; source: Hi5 cells, baculovirus co-infection, purified (Ni-NTA, MonoQ; also SEC for DEER samples); not shown: His6, …
Test: single-molecule FRET within the labelled receptor (TIRFM); 20 nM µOR–Cy3/Cy5 with 100 µM ligand incubated with 20 µM Gi1, then apyrase (nucleotide-free); complex immobilised via Flag tag, biotinylated M1 Fab and streptavidin; 25 °C, LMNG/CHS micelles, 100 ms frames
Details: both partners purified

B1: µOR∆7(R182C/R273C) labelled with iodoacetamide-conjugated Cy3 and Cy5 (receptor)
chain: GPGNISDSSDPLAPASSSPAPGSWLNLSHVDGNQSDPSGPNRTGLGGSHSLSPQTGSPSMVTAITIMALYSIVCVVGLFGNFLVMYVIVRYTKMKTATNIYIFNLALADALATSTLPFQSVNYLMGTWPFGNILCKIVISIDYYNMFTSIFTLCTMSVDRYIAVTHPVKALDFRTPCNAKIVNVCNWILSSAIGLPVMFMATTKYRQGSIDCTLTFSHPTWYWENLLKICVFIFAFIMPVLIITVCYGLMILRLKSVRMLSGSKEKDCNLRRITRMVLVVVAVFIVCWTPIHIYVIIKALITIPETTFQTVSWHFCIALGYTNSCLNPVLYAFLDENFKRAFREFLIPTSSTIEQQNSARIRQNTREHPSTANTVDRTNHQLENLEAETAPLP
modifications: iodoacetamide-conjugated Cy3 and Cy5 on the introduced cysteines 182 and 273
notes: µ-opioid receptor, Mus musculus, residues 6-398, minimal-cysteine construct µOR∆7 with two introduced labelling cysteines; Tethered to the cover slip via its Flag tag, biotinylated M1 Fab and streptavidin; also called µOR–Cy3/Cy5; source: Sf9 insect cells, baculovirus, purified (Ni-NTA, anti-Flag M1 resin, SEC) in LMNG/CHS micelles; not shown: Flag, N-terminal, kept
**Q.** Does B1 bind?
**A.** Result: binds
